Results: paper PMC2137869
“And” between values parts separate entries of the source, which are not always exact repeats. Identical values can stand only once.

How the values were obtained:
[1] = target: H chains of rabbit gamma2 globulin, first Sephadex G-100 peak (Fraction H) (rabbit); experiment: sucrose density gradient ultracentrifugation
[2] = target: H chains of non-specific rabbit gamma2 globulin (rabbit); experiment: sucrose density gradient ultracentrifugation

L chains of non-specific rabbit gamma2 globulin
per cent of the I131 label (L chains) in the >7S fraction [1]: 9 per cent | per cent of the H chains in the 7S peak [2]: 60 per cent and 70 per cent
